# Data: US6387643B1, “Human platelet heparanase polypeptides, polynucleotide molecules that encode them, and methods for the identification of compounds that alter heparanase activity” (Pharmacia and Upjohn Company, priority 1998, dated 2002)
# B1: purified heparanase: Human platelet heparanase: non-covalently associated 56 kDa (residues 145-530) and 8 kDa (residues 23-96) polypeptides of SEQ ID NO:2 (protein)
# chain: QDVVDLDFFTQEPLHLVSPSFLSVTIDANLATDPRFLILLGSPKLRTLARGLSPAYLRFGGTKTDFLIFDPKKESTFEERSYWQSQVNQDICKYGSIPPDVEEKLRLEWPYQEQLLLREHYQKKFKNSTYSRSSVDVLYTFANCSGLDLIFGLNALLRTADLQWNSSNAQLLLDYCSSKGYNISWELGNEPNSFLKKADIFINGSQLGEDFIQLHKLLRKSTFKNAKLYGPDVGQPRRKTAKMLKSFLKAGGEVIDSVTWHHYYLNGRTATKEDFLNPDVLDIFISSVQKVFQVVESTRPGKKVWLGETSSAYGGGAPLLSDTFAAGFMWLDKLGLSARMGIEVVMRQVFFGAGNYHLVDENFDPLPDYWLSLLFKKLVGTKVLMASVQGSKRRKLRVYLHCTNTDNPRYKEGDLTLYAINLHNVTKYLRLPYPFSNKQVDKYLLRPLGPHGLLSKSVQLNGLTLKMVDDQTLPPLMEKPLRPGSSLGLPAFSYSFFVIRNAKVAACI
# modifications: two chains: residues 145-530 and 23-96
# B2: Pro-heparanase: 508 residue protein, amino acid residues 23 to 530 of SEQ ID NO: 2, precursor of heparanase (protein)
# chain: B1 chain
# How the values were obtained:
# platelets = conditions: 1 U/ml thrombin; cited from earlier work
# ^35S-HSPG (>70 K) = test: Heparanase activity, Conventional Assay (degradation of 35S-HSPG, 30,000 MW cut-off filter); assay type: biochemical, mice
# Procedure: The pH optimum of the purified heparanase was determined by conducting the assay described in Example 2 (the Conventional Assay) in the pH range of 3.5 to 8.0, using a citrate buffer (pH 3.5-6.0), citrate-phosphate buffer (pH 6.5-7.0), and phosphate buffer (pH 7.5-8). Heparanase was active between pH 5.0 and 8.0, with the optimum pH at 5.8.
# ^35S-HSPG (>70 K) was prepared from mice bearing a basement membrane tumor that overproduces HSPG (EHS tumor), using modifications of the method of Ledbetter et al. (Biochemistry 26: 988-995 (1987)). Briefly, the radiolabeled HSPG was prepared by injecting C57BL mice bearing the EHS tumor with sodium [^35S] sulfate (0.5 mCi/mouse) 18 h before harvesting the tumor. […]
# ^35S-HSPG was isolated from the Buffer B supernatant by sequential chromatography on anion exchange and gel filtration columns. […] Fractions were sampled for radioactivity, and those containing the ^35SO4 label that eluted from the DEAE-Sephacel between 0.4 M and 0.8 M NaCl were pooled. […] Fractions were sampled for radioactivity, and those containing the ^35SO4 label that elutes with a molecular weight 70 kDa were pooled. […]
# Heparanase activity from platelets or column fractions was detected by its ability to digest the 70 kDa ^35S-HSPG to produce lower molecular weight products. not retained by a 30,000 MW cut-off membrane. […]
molecule,measurement,setting,value
thrombin,heparanase activity released from platelets,platelets,100%
B1,optimum pH of heparanase activity,"^35S-HSPG (>70 K); pH range 3.5 to 8.0, citrate, citrate-phosphate and phosphate buffers",5.8
B2,catalytic activity,^35S-HSPG (>70 K); before cleavage of the Glu96-Ser97 and Gln144-Lys145 bonds,not catalytically active
